Results as given in the domain aggregation screens of Martell et al. (2025).

Experiment: soluble fraction after stress (log2 fold change); higher = more stays soluble; pooled small domains, quantitative proteomics
Conditions: stress: 50 degC
Summary of the method: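 The stress applied to every library was 50°C. These custom libraries of small protein domains were pooled and measured at high throughput with quantitative proteomics as the read-out. Aggregation propensity is expressed as the base-two logarithm of the fold change in how much of each protein remains soluble. The higher the value, the more of that protein stays in solution.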

Sequence	soluble fraction (log2)
HMPEIFYRKIHRTDHDQIALDAEMIRLLIAIDEKKSLSQIAAEVQMEPMALKKNLGKLIQLGLVEPIK	0.137
HMAQVSDDAELEKWADTAIDEHPKPVEEYRAGNAASINFLMGQVMKMSRGKANPGAVMQILKQKLD	0.109
HMQLTQEAIENLFKITTAKKFREELEKLVVTDSEKKAFAYFTVYHPKLKELPFAILKSVENYTGISI	-0.871
HMLKLTDRQKVILSILMSDGEKTASWIASQLGVGLRSVQLDLSYLRNNGFIKKASKSTHSAWIVLKK	-2.5
HMAVRLADMAAEKIRKMIIENKFDAGEPLSEMRLAEMFNVSRTPIREAIAILEQEGLLTTVHGKGAFIS	-0.367
HMSSLTPRETEVLSRMAQGDANTSIAERLVITEKAVQKHINAIFAKLGLAEEPTSARRVLAVLAFLR	-0.512
HMDISPAAKQRLALIQPLLEKNAEAITDRKLRNAVAKDIANNQNTTVRRVLRLYYRYLATGQVM	0.0392
HMDAVKKKVQSTNTLLDVLKQMLPQTSSNTLRKMLTNQRITVDGETIHRAKHTVEKDQTVEIHPKP	0.256
HMPPFDDILAEYYEPLYRHVRRMVVSHDDAKDVMQEAMLRIFQGLDGLKDPSAVRTWVWRIATNEALRH	0.0662
HMDAYMIGHNIAKWRKEKGMTQDQLAEHLSVSGQAVSKWENGASLPDIAILPKLAEIFDVTMDQLFSR	0.144
HMTELLTPKQRQVFELALREGYYDVPRRTSITEMARLLGVAKSTLSAQMHRMEATVMSTFAEEIRKQ	-1.74
HMDQNVSVPKLAGLQVEEANAILKSKGLHIEIIDSIYQKDAVPGAIIEQVPEENSKVKKGRAIYVSVYAK	-0.227
HMSSTAIQAMIRRLIDGEDPRKPLSDARLAETLKASGVPVARRTVAKYRESMSIPSSQDRLRI	-0.156
HMNSYKGELLVDDKNIRLDLYLFNQFNFFSRTKIKNYILKGNVLVNNNKTSPSYILKGSEKIYYDFSVS	-1.2
HMFTYDLSERELTIIELVAKGLNNKELADTLFLSEGTIRNYLSTLLNKLDLRDRTQLAIFYYQHL	-2.62
HMFLSSEERRERIIEVLRQQDEVTVVELSHRLGVSEVTTRKDLQQLEEQGYLTRVRGGAVVSGRGQL	-0.0183
HMSFPLKRGSKGNRVTQLQNALVKKFGASILPKYGVDGMFGKEVEAALVRAKLPTSINESTYNSFV	0.12
HMTVSIGSVIARERRLRGDTQQELAERLGVSKAAVSKWEVGQSIPDVTLLPRIAAYFSLTLDEL	-2.18
HMPRIYSITINPEKIRTVIGPGGKVIKDITAKTGTKIEIDDSGKVDIFSPDEEHARMAVEIINTLTEE	0.14
HMITMADKIDTALSEMAANNEKINVSQVAKRLGISNSAIYKFNPEKIPDIQTAQKRQKHKAEAIAVGTEN	0.215
HMNVRAYKVSKESELTVEEKLEAVRGYGVADLLYVIREFEENPGKYEPEVIKLIVQQLTDKGIM	0.199
HMRPIWVQLADDFRHRIVSGQWPPGSKIPSVRELAAETGVNPNTVQRALGALDGEGLTATERTAGRFVTT	-0.0768
HMALQDKYAELLTAANTMGVTNLAVAEKDGTLHVSGTAKSTADYDSLWALYDKIDPNMASGDLMMNI	0.0408
HMDLIFQKGDLVFSTEHNQRGIFYEYLEQGQAKISIEKQFFVVAARRLQLLTKREVLYPAGYDLDQLFV	-0.0465
HMTNVNSLIGKKAIVIQDIDNLKSTGQVKIGGEIWSAQSESNDIISKDTEVEIVKIDGVKLIVRLVPV	0.1

Sequence	soluble fraction (log2)
HMAPAPDEAFAEFVRSSAPSLTRTAWLLTGDRGHAQDLVQNAYAKTLQAWGRLDAEGALAYTRRAVIT	0.00536
HMVGVDMTVKEEVGKEGVTFTDLRPAGKVEIGNDIYDAVSNTGAFIQKGEKVKIIKYQAGQVYVEKLV	-0.121
HMDSTLDLVATQGGRLDQVLAEMIPEHSRNRLQHWIKAGRVLVDGQPVLEPKHKIYGGEDLAVRVD	0.278
HMNLKDINLNVRHYKIIDFVREHGYASIETLTRQFGVSAQTVRRDIIYLDNQAVLKRHHGGVGTLPG	-1.99
HMRMYDVNEYSDEELHRILDLSSPTDSELEARILQMIQKYKYTNGGDNEKMAVFFENIYHHFFD	-1.5
HMKVTTGIDGLIGEEGVALSDFSGKGKIMVHGEIWNAEFSGEVKKGEVLLVEKANGMTLITRKKN	0.561
HMIFEETVFKDIAFGPKNMGLSEAEIKRRVYETAENIGLSQELMERSPFELSGGQKRRVAIAGVMAMEP	0.192
HMAEVRTLLVPIELAGMRFDQVLAELLPEFSRSRLAAWIKSGDALLDGHDAKPKGVVRGGEQIEIRLA	0.0321
HMGTRIQAVMEDIQSRIAARTYLPGTRLPSVRAQAQAMQVSVSTVVEAYERLAAEGVIASRPGSGFYVAGP	-1.44
HMYINVQNARTIASFRSSLWRMHRDFTNQGYITADGLKTFLEMGKLYEDAGGNDIYHSKLLPEITALEIKY	-0.76
HMVSSVAAISQMIDEKDRYTSEHSHRVAEYARLIGAHMGFAGEELDSLYRSALLHDIGKIAVPDAILNK	-0.338
HMASVRPVAPPDPKTHTRLTYRIRRGDTLERIGRRYRVSIAEIQAWNTLRDPGDILAGQRLVIWIPTS	-2.3
HMTSLYDILGIAKTADSQTIKTAFKKKALLYHPDKNNGNLKKEEIFKKISTAYQILSDPKSRANYDLSIA	-0.115
HMHLTRYLHTMIRAANLDDTLDFFVEKLGLIEAYRYSNEAGRFTLVFLSAPDDLESAQSRQAPLVEITYN	-0.107
HMENYIEQLTAKNSEYIHVVTRELVKIGKSDEEIKAILSDILPQIVAAQDQRVLAKDILGTPSEFTAKYAP	0.173
HMRRTVIVTAAHAEIRERPDANAPLVFSAEQKVSLDYQETAPGGWVKVRHRDGQSGYVRTNQI	-0.688
HMEFLLAIQPFVLLTDHANLTFLREQTDSMMKRIQINISGFEIEFRYVPGLTNILPDKMSRV	-0.0431
HMGKPSSEELEALGRRTLEENVDVVEEILGGRDPKGKKIKYLEGLMMRALRGQETPEAVRRTLEELIFK	0.0847
HMVPEEEATKISVQNVGASDYNFTVKGVQANDPTLTLVRGKTYEFDVTSLGHPFWIKTQKVTGSSSQY	0.1
HMQAPVVNHDLIKSFERQWREIKATAKGKVRSVNLSDARSILQSFLNTLQKGPGTDSLISSVQNELSLIA	-0.00186
HMKGMIKVASMSLGADLGLYSRHLKYLGIVHRVVEESGGQSVYIQKLNDLHTAKESLELYLKNELKI	-1.19
HMITKAIELAEEAEKETVWLGVWEHNHPAQKFYQSLGFVKTDEHDFYMGNERHTDYTMTKQLK	-0.138
HMTPIELIEKTIELIENERKVQKLQQKELALKADIPFPTYKDFIYKKRASLENILKLFIALRLF	-0.342
HMINVLTPKQIEATTIAVKYGYYENPRTVSMRELSEISGIARSTLQEHLSKAEAALMILAAKSQL	-0.338
HMYDEAAIRKAVMTFVTDNRDERLDLAKISAVLTSKFGNINFDELGYKRFSSFIDSFPELRRNNTFVSLR	-0.312

Sequence	soluble fraction (log2)
HMSVIKERLTEFLTYKGIGQIKFAEAAGLSRGFVNVLGDGISSKSLNKISQAFPELNTLWLTTGEGEML	-1.91
HMVMTTVPEVLGMDIRTAASMLTGKNLKYDYDLVESDKPKDEVIEQDQAKGTEVPEGTVVKLKVSKGPA	0.0583
HMLGKSNAERQLDLILGAIERSITGVSRSKLMQAYHLDSRGATAAFETLEQRGLITRSKSGRTELLIPTRV	-1.29
HMATETMGMIIRRLRREHGLTQEELAASIGVTAQAVSKWEKDLGMPDISQIVPLAGAFNVRTDVLFGLE	-0.98
HMGPDTVDRTRRFKWVDNEVVVNFGKNAGRTLRDLAENDPGFLRWIVRSDFSDEVRTIANDALMGKFPTRK	0.00109
HMASRSQTEIMHLLSSGLPKHELVTALQSLLGISKPTAYKYLSQDVSIAYDHMVKILEYPPFQRVLYQ	-1.34
HMPNFDPSYILDFGDVIQLQLVGQKNQILEIPILRDGSVNLPDIGKIFLSGMSLEEATKIIKDTYSA	-0.679
HMHGLNQNKPIPIADIVNSVNNYLTSLGKKTITDNSVLSNLKKAAKYLNTAYNLVLRPDSLNMTVTLL	0.0467
HMAQLTPREREVLVLIAEGKSNKEIADQLNIGVRTIETHRERIMRRLNIHSVAGLTKYAIANGLVTL	0.116
HMANEGWDIYKLDIRNHKQPNGEYYSEKEIQSTINNTFGKGSFNVDWKKYEKDKEYREKTNYYYFQAKYFV	-0.19
HMNPDDEMLLTYLTKLLVDKQFIVNSNDIFEYILRRVDRTYDGIYDIVSKLDVLSLEKKRQLTIPLIKEI	0.0226
HMSTRLIGEIGVVTKDLGAGLKENGSIQIGREEWPAETKDMEHIPMGTRVKVIHIEGTRLVVEA	-0.629
HMGVRVEVDAVTPPGAMASGSVVFSDGESKKWSVDQFGRLAMTGGAPDYKPSDQDVMEFQQQLEQSL	0.054
HMKTALQENVRAYRLERKWTQQALAEALEVSVGAVSKWESGVSRPELETLMRLAELFGVSTDALLGF	-1.75
HMGASALTEREREVLRLLEGGGSDKRIARQLAISEHGVRYHLKSIYKKLGVHDRVSAIAAGRRLAS	-0.21
HMDNPNVMAQVKSLLASKGLSEQEVKERLKAKGLNIDAMSDAEIAQNRSVIEQTIAELEAEKKKAG	-0.128
HMNMMESNLFAVYDNDDIVKTLRQGAMEIDSLIRLMGKSSAEVLEKLTTMELQGIITRSGNIIALNN	-0.064
HMEKDRDKRIRKRVLTALKRNDKKMTDKAFALLTSRIRDESILDQEVLKLIGYVGDRTTIDSKDINIVVAE	0.0525
HMPVRIYEISKKLGLENKEVLATAKSLGIAAAKVPSSSLDKITAEYLEEEILKSHPEVAARLK	0.329
HMTEPKILTAEESQRLDLILVQQWPELGRRALRELVQQGGVRINGELALKAGQYVQAGERVEVAVP	0.0571
HMKNANGYGSITKLKGNRRKPYMVRITVGRDENGFPIRKVLGYYSSKANAVAALSDYNREPYDI	-0.667
HMRIVQTDYRNFLSQVESGAVRSVQIDETQIRYTALDSGGKEIVYNTGKVDDPGLVNRLYDAGVEFSQVIP	0.0657
HMSQLYINATDDGWVIGNLPADAREVLLTTLGGQVVARYHVTAPSLRVKAPRKGVYIVSVETA	-1.12
HMSSRNLIIFYDSPQAENALLATAERYGAILLHHYRNLHGIAVAIPADKDMAQAVTYFSRQPGVRQV	-0.803
HMGQAAHYEGVKGDGESDTDVISRVLTAAGAEAQKDDIFVVKELIAGGKYSYTAYVYDGSVWAAM	-0.266
